According to patent publication US20260015398A1:

Molecular target: strepII-flag-PLXA fusion protein displayed on engineered extracellular vesicles (strepII-flag-PLXA-EV) (Homo sapiens (Human)) (UniProt Q9UIW2)
Test: in vitro co-incubation of EVs with FITC-streptactin (10000:1), nanoflow cytometry, share of FITC-positive EVs

Sequence of UniProt Q9UIW2 (Q9UIW2 863-1316 limits assumed, change not shown): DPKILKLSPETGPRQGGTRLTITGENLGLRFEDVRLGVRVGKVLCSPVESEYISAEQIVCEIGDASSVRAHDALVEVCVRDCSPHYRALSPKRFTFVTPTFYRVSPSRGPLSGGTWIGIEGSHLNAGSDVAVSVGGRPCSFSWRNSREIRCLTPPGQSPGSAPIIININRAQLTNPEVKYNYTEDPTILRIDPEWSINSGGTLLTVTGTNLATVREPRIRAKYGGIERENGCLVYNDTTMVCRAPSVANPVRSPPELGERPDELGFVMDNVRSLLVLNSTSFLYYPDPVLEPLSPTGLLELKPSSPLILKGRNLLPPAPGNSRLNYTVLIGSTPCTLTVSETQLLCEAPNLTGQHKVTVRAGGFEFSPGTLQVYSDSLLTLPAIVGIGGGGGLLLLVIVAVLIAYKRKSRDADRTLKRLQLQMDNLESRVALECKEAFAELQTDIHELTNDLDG

FITC-streptactin gave a positive rate of 73%.
